Experimental data taken from patent publication US20090148863A1.

Legend:
[1] = target: T-ZZ (transmembrane/translocation (T) domain of diphtheria toxin fused at its C-terminus with ZZ, a small portion of protein A) (UniProt P00588); test: slope of FIG. 6A in the first 60 min, 2.78 nM AgMMUA-IgG, T-ZZ at 0.37 molecules/um^2 on living cells
[2] = target: T-ZZ (transmembrane/translocation (T) domain of diphtheria toxin fused at its C-terminus with ZZ, a small portion of protein A) (UniProt P00588); test: slope of FIG. 6A in the first 60 min, 1.39 nM AgMMUA-IgG, T-ZZ at 0.37 molecules/um^2 on living cells
[3] = target: protein A (PrA) from Staphylococcus aureus (Staphylococcus aureus) (UniProt P38507); test: UV-vis absorbance against time, slope of FIG. 3C
[4] = target: protein A (PrA) from Staphylococcus aureus (Staphylococcus aureus) (UniProt P38507); test: UV-vis absorbance change, 1.1 nM AgMMUA-IgG with about 100 nM PrA in PBS
[5] = target: T-ZZ (transmembrane/translocation (T) domain of diphtheria toxin fused at its C-terminus with ZZ, a small portion of protein A) (UniProt P00588); test: single nanoparticle imaging on living cells with T-ZZ, value given in the summary
[6] = target: T-ZZ (transmembrane/translocation (T) domain of diphtheria toxin fused at its C-terminus with ZZ, a small portion of protein A) (UniProt P00588); test: slope of FIG. 6A in the first 60 min, 5.56 nM AgMMUA-IgG, T-ZZ at 0.37 molecules/um^2 on living cells
[7] = target: T-ZZ (transmembrane/translocation (T) domain of diphtheria toxin fused at its C-terminus with ZZ, a small portion of protein A) (UniProt P00588); test: slope of FIG. 6A in the first 60 min, 11.12 nM AgMMUA-IgG, T-ZZ at 0.37 molecules/um^2 on living cells
[8] = target: protein A (PrA) from Staphylococcus aureus (Staphylococcus aureus) (UniProt P38507); test: UV-vis absorbance against time, simulation matched to the data of FIG. 3B
[9] = target: protein A (PrA) from Staphylococcus aureus (Staphylococcus aureus) (UniProt P38507); test: UV-vis absorbance, average of equilibrium and kinetic methods, three repeats
[10] = target: T-ZZ (transmembrane/translocation (T) domain of diphtheria toxin fused at its C-terminus with ZZ, a small portion of protein A) (UniProt P00588); test: counting single bound nanoparticles on living cells with T-ZZ against time (SNOMS, FIG. 6A)
[11] = target: T-ZZ (transmembrane/translocation (T) domain of diphtheria toxin fused at its C-terminus with ZZ, a small portion of protein A) (UniProt P00588); test: isotherm of the fraction of bound T-ZZ on living cells against AgMMUA-IgG concentration at equilibrium (SNOMS)
[12] = target: T-ZZ (transmembrane/translocation (T) domain of diphtheria toxin fused at its C-terminus with ZZ, a small portion of protein A) (UniProt P00588); test: slope of FIG. 6B, 2.78 nM AgMMUA-IgG, T-ZZ at 0.21 molecules/um^2 on living cells

Chain of UniProt P00588 (P00588 234-410): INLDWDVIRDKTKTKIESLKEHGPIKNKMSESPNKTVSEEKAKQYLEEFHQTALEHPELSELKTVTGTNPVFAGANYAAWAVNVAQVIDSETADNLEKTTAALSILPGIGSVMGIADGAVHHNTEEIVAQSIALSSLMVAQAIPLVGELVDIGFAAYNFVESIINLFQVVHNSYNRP

## AgMMUA-IgG nanoparticles (immunoglobulin G from rabbit serum covalently conjugated to 11.6 nm Ag nanoparticles carrying a mixed MUA/MCH monolayer) (antibody)
[1]
  binding rate (molecules/min): 5.3
[2]
  binding rate (molecules/min): 3
[3]
  kon: 120 M⁻¹ s⁻¹
[4]
  amount of AgMMUA-IgG nanoparticles bound with PrA at equilibrium: 0.14 nM
[5]
  Ka: 4.3e+07 M⁻¹
[6]
  binding rate (molecules/min): 20
[7]
  binding rate (molecules/min): 27
[8]
  koff: 5.4e-05 s⁻¹
[9]
  Ka: 1.9e+06 M⁻¹
[10]
  Ka: 3e+07 M⁻¹
  koff: 0.0003 s⁻¹
  kon: 9000 M⁻¹ s⁻¹
[11]
  Ka: 4.8e+07 M⁻¹
[12]
  binding rate (molecules/min): 2.3
